# From the supplement of paper PMC12636428
# Test system: Saccharomyces cerevisiae
# Test: transcriptional activation domain activity (GFP:mCherry ratio, weighted mean of sorted bins, harmonized to initial dataset scale) (arbitrary fluorescence ratio units); higher = stronger transcriptional activation
# Conditions: beta-estradiol 1 µM; induction time 4 h
# In short: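 In diploid yeast carrying a GFP reporter, barcoded protein tiles fused to an estradiol-inducible synthetic transcription factor were integrated at the URA3 locus. Cultures diluted 1:5 into SC with 1 uM beta-estradiol were kept at 30 °C for 4 hours, then sorted by GFP:mCherry ratio into 8 bins before barcode sequencing. Tiles with under 50 reads were excluded. The activation activity reported here is the read-weighted mean of bin median fluorescence, averaged across barcodes and linearly rescaled to the initial dataset.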
row,Sequence,transcriptional activation domain activity
1,EGPPSPDKGKAEDEKNEKPQANTAKKAKPTEEKKVGEGKKAAAGTGGAGAKKE,23200
2,EGRRASRRKARGKSGADTPGTSEDEGVGGTSKSKPRKKRKLERKSKDAGKFKS,27600
3,EGSARGGEAGKKEERQADEKEHKGRARPGRGEKDGGGRGRREEERDRKEQNGG,34000
4,EGSEEKKERSRRHGDSDRRERRRHRSGSRSRDHDRDRERRHRRHRRSRSRDKE,13400
5,EGSERESKGSEREGEGSEREGKRNEREGKRGERGGERVGERGSEKVGERGSEK,22700
6,EGSGEEAGGEGSGGEEDEEDEAGGGGDDADGRRGEDDGADEGTAGARAAAKAA,34900
7,EGSSSGEEESSEEEEAAPRREDAAAARQKAADEMIEEQIKRDLAARAAGKKHW,30100
8,EGTGYITVSSGTRYVRLVGARGEEGEGVFGGGRRRRVEVVDFSRARVRAAQIG,49000
9,EGYDLLPFRLGCAYVVLGWYWISTTWVEAEPVSQGVKPPKDRDYFHRVKLRFD,42200
10,EHFAGNNHVNRVVNFVQSCFTFYAPKMCKYYTEILQALFSQPTWWMVCCCGFW,46200
11,EHHLLKALVDVIKRAMLISAQGASGRFEAKDLHLEHMIYWLKYFLNRAVCIAL,62700
12,EHIEVDLTGIEEVTTGAGLLSRTRTSRHCFLHKTKVLQILDMKCTHDHPSPSS,29800
13,EHPARARVDKNRTKTSAREVHPARAAREEHPARAYADKNRTKTSARDVHPAGA,40400
14,EHQCATIQLDFQLPQQFNLEYMTSEKAPAAKIEAAPKTETAPKAEAPAAAPAA,42500
15,EHRVMSAKIKAGELIDNGRFVDEKSFEKPPIHFHLICDHNIRVLLIIIHHSLY,21300
16,EHSTTGDSWFLGLVLCYPLRSYGYFMLFFIWLRLFLVLAFQFLLYACNYLFIL,62200
17,EHVFLVYFFIFTMQEFAGELVSLVDVMRRIYSLDQARANRAHWWKWIFRCWLH,58900
18,EHVHVNKIPVRVSHGSGFELMGKSSFIFKGFRSLGILMLIFWSKANHILIVTV,70700
19,EIAEGDEAEAARPAKIPRKPRRKKAVEGEGANEEGGAAPPRPKRKRKTKSKSA,42100
20,EIAVEEPAQPMDVDGAVEAETDATTSKQDKKDKKKKKKASKESKVEAEPEAAA,48700
21,EIDEAAGEINEAAGEVNEAGEVDKAGEVDEAGEVNDEAGKIDKAAGEIDEAAG,30600

row,Sequence,transcriptional activation domain activity
1,EIESVVMLYVSGRLLRIIEVGLVEGRPDVQAIVQALVARLICVTVSATAKWAR,36000
2,EIFSSYNASMVQESAGIDFLDFAMPDLIAEANDWAFQGVDSAFFDSVMAGYTL,147000
3,EIGALMLLSKTLEDNPNRLGSLVRILTLKCFIPQSYFKLMVRRLNILFSCCSR,64300
4,EIGPDGEVKKKYDPKDPMRPRRKKARRACFACQRAHLTCGDERPCQRCIKRGL,53300
5,EIKEATGEEHQEEQEDAIDSKEKVVMQSCPEVSLRRIRRLLRKHKGDPNKVID,27300
6,EIKGDLTMTNLVTNFGFSIRWTHNLFEHLSIDWVGRVITIYEDKICLWNHLRF,43500
7,EILHLMVDRDLFLLLAIDGIMCLATSFGFLLQKAIVHDCLTWNGSGWIIQSLW,68500
8,EIPIQLGCIHLHSLWMTYALLYQLIYPMMMIYNLVNCIYFGSGLQIAWWMFSI,44200
9,EITNDESVEAHKEEQAVEAKEGSPEIAAEAEAEEGGAKPAEESKKPRKLIEEE,12500
10,EIVDPMQSWLPFQPEASDNVLPDENFFLDDSLFTFGDTLTPNFGPVEWYDLLA,140000
11,EKAGEEEKAGEEEKAAEEEKSAEEEKAAKEEEMKAMEKSKAEKEASSEEPKAE,35700
12,EKAKPAEEPKPAAEPAPAEEKAAEPETQPESKPAEELSSPTEEPAPIEEAKPA,15800
13,EKDKENDKGEKGEGEKKGENRRGRRRGGRGRGGGGDKDKEKEKDGGGGGGAKR,47000
14,EKDKGEPADGAAAPVVKRKRGRPPNKDRNKPPPAPAPAPPPAGASASTPASRL,33400
15,EKDKKEETKDEPKKNEVKPETKDDVDEKKDENGRPKLVVKRLRKETTAAAAVA,37600
16,EKEARHAGRESRKAPEVREHRSSRRKDKERERSARPDNERRKTHVDGEDPEER,23800
17,EKEAVVKDTASSTRAKTTRSKPKAAPAAAEPPKTATRGRGAAKLAADKPAPKT,23400
18,EKEEAEKKKKEEAEEKEKEKEKKEKKGGKKKRASKKSSRKSKSKEAAGSGADE,25500
19,EKEEDAQLRDRHRGRHSVDRDLHRRGGRVRDRSRGERSLRNQPRAAGAGAAAG,57600
20,EKEESDEDESEKGSAAGGRGKAALKTWVKRVRLIRDKGTLLGKGFGYVQFNDR,69000
21,EKEGKRRSLQKASTSKASSKTLHFMECKVVPEQPLLRIRWSSLTHGALMLYNG,49300

row,Sequence,transcriptional activation domain activity
1,EKEKERKHKHRSRRDRSRSRDSDGGRDRRHRHRRDRSRSRDAHDDRERRHRHS,19000
2,EKERGRERERKERKVNGAWIKTKPKKRRDDSARARRHTRRRDVSSSASPTREM,25800
3,EKESVCYKLRLNRDSLSIMKDFLACKHEHDPSLIVLAHVLLYKVTATFVKAVS,53500
4,EKEVEGNKNNEEDKPEENEEKDGEDKDAKEKGEEDEDEEDRDQDQEDEDQEGR,11800
5,EKGEEGGSGGEGGEGRRGGQARGTGRRAGQEGKGPGKGEGGAARRRKEGEARK,54500
6,EKGEGDKNRRGRRRGGRGRGGGGDKDKEKDKEGGGGGGRGERKTEGSGGISAQ,42000
7,EKGGGRDGETAAVEGEKEVQNGDAQTEADGNASTDGGTKRRRKGKKAAAEADD,24100
8,EKGGRDKDKDGRPANAKPKSKPHGKTPKPQQQRDGKKSATLKENAAPAAPAAA,24800
9,EKGKSIWIGRDNLEVNVETLALQWYEDQGFKGIHSETRIITTLFGILFWDIIF,55900
10,EKGNKRNDEEKGRGGEGRSTGRERREAKNGSAEGEGRERKQRRDGGEAGEGGT,45400
11,EKKAPGRRGRPPKAAAAKKAKEAAAPGEEGAKPKRPVGRPRKGTTETAEKKGA,22300
12,EKKEGAEKEGGEKKEAGGEGEKKVGGEGEKKEGGEGEMKESGVEGGKKEASES,26600
13,EKKEKSSRKSTSRAAANGTAEKASKGEASSKKSRGASRPRSPKKTRSPAGRPA,24500
14,EKKERAAEPIAEITTEAAAEPKAAAEEATPKKDKKEKKSKKEKKTEESAVTSE,34600
15,EKKGKEGKRMRREKREIKEPEEKWEEKKKKPEEPEDVGARPRKPRREESKSRA,37600
16,EKKRKRTEEEDAPKLKKKKTKSDLKRDSGGSSQEDSEAPAKKKKSSKSKKAKK,35800
17,EKKRLLREKNKKRKRGEEVSDDEEEQKEEAAKKAKSEKEDSKHGIWVGNLHFS,50100
18,EKKVKAPKSPKKEKKKEEAEAAAPATEEPAKDEEPAAAEAPAAEEAPKEEAAA,41200
19,EKKVKTPKSPKKEKKKEEPAAAPAAAAEEPAKEEAAAPAEAAVAPTEEPAKVE,42200
20,EKLVEEVQETPKDKKKRKRDVEAEDVEASAKSEKKLKKKKSKSSAEEAAPADA,30900
21,EKLVMNILEAVRLFHSIFDGLIAKALDEFAHLSRQARTMLSFFVIHIHLGVLH,71300

row,Sequence,transcriptional activation domain activity
1,EKNEKPAPVAPAEGAVAEAKEGKSQKKEKKEKKPAEEGSSSKKGGKSAPAAAE,33700
2,EKNKAEKKVKTPKSPKKEKKKEEPAAAAVEEPAKEEAAPAEAPAAPVEEPAKV,22800
3,EKPAEAAPAEAIPAEPEAVEEEKPKSPAPTPAAAPAKGTTPSPEKENVAPAKA,24800
4,EKPKPEESPKGRGKSSGEPAPIPPSNGAADSKPSSAGAGNGSGSGSGDGGRKG,39800
5,EKQKKKRKRGKRRRRRRNEKEEKEGEEEEEEKQEAKEEAKEEAKEEAKKKEKK,24600
6,EKRGAAKRADRSRSRSRGRSRGAKDVARRRRRNSSADSHEAREHRRQGKRGRS,44700
7,EKRGLDTKNIYVGAEPFDAELRQRLESEQSFSFRSTDIIHFVAMLLIRYLFDL,59300
8,EKRHEKKKGSRDISGADDRSSGRSKDRRDHSSRGSSRKRHGSRRDKDRDLEDG,25700
9,EKRYGPMLDPKNPLHYMWQLVYNILSLKLHIMLLFRYASNMHRIMPERLRQTV,58300
10,EKSEGANGEAGGEGSRRRASGRGRLRGRGRNGRGGRGGRAGETTDDKKEGEAT,26100
11,EKSQNNSNVINETIDHTDIHAHHADAHDDSFIESEEWLSKFIMDSQIDNDLKL,139000
12,EKTEKKAKAPKSPKKEKKKEASETAAAPATEEPAKEAAKEEAAPATEAPAATE,31300
13,EKTKRKKKSATGATKRAGSGEAKPKRQRKKKGRRGESGDEEESGDEEGAERRA,< 6570
14,EKTRRNREKREKKKNKGKGGKGGGGGGNGGGGGGSGNAATVTAAAENGAGKKE,30900
15,EKTVEQPEELKETGGKEPRIERKLPLQYDHHQRKTRDNQMFQLAVVIYFLGKL,40300
16,EKVGTLWRARDVNERRQAKASGAAGGAAKATKPAGAAAASGAKPKATGAAGAA,21900
17,EKVKEEEEVKYKGKEQEEVKDKGKEQEQEQEQEQEQEQEQEAPAPPRTTTSTA,40900
18,ELENQSSLYYLPIHEETPFFIDLIPNGFYLETKRSADNLFGLFTDRAIENRDP,83800
19,ELGAIEESKLCIVLLGTFRLLSFDCRTFAKYVRPLSLERLFNHTSRIVRLLAI,44000
20,ELGFVEIVQVSPRFGILLLCMTLSMISIIVDLLSVTPVIPIGVINPFWKFAFV,39800
